Test results from patent US20260167699A1 (Chugai, published 2026).

Target: T1, FcγRIIIa extracellular domain, C-terminal His tag (human, UniProt P08637 17-208)
T1 construct: extracellular domain; also called 3a
Test: SPR, binding activity relative to GpH7-A5/GpH7-B3/GpL16-k0 (=100)

T1 sequence (P08637 other isoform, or with tags, fused parts or gaps): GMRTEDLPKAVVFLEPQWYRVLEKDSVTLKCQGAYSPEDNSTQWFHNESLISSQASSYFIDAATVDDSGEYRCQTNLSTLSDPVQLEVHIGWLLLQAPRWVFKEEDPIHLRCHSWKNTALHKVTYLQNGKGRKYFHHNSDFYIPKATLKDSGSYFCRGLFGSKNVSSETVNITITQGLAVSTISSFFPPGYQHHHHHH

Row | He/Con 3a | Binder
1 | 70.7% | GpH7-A5/GpH7-B3 variant P331_04F/GpL16-k0 (antibody, human IgG1, kappa, He Ab; copies: 1 + 1 + 2) heavy 1: not shown heavy 2: not shown light: DIVMTQSPLSLPVTPGEPASISCQASESLVHSNRNTYLHWYLQKPGQSPQLLIYKVSNRFSGVPDRFSGSGSGTDFTLKISRVEAEDVGVYYCSQNTHVPPTFGQGTKVEIERTVAAPSVFIFPPSDEQLKSGTASVVCLLNNFYPREAKVQWKVDNALQSGNSQESVTEQDSKDSTYSLSSTLTLSKADYEKHKVYACEVTHQGLSSPVTKSFNRGEC
2 | 84.6% | GpH7-A5/GpH7-B3 variant P271_19Q/GpL16-k0 (antibody, human IgG1, kappa, He Ab; copies: 1 + 1 + 2) heavy 1: not shown heavy 2: not shown light: DIVMTQSPLSLPVTPGEPASISCQASESLVHSNRNTYLHWYLQKPGQSPQLLIYKVSNRFSGVPDRFSGSGSGTDFTLKISRVEAEDVGVYYCSQNTHVPPTFGQGTKVEIERTVAAPSVFIFPPSDEQLKSGTASVVCLLNNFYPREAKVQWKVDNALQSGNSQESVTEQDSKDSTYSLSSTLTLSKADYEKHKVYACEVTHQGLSSPVTKSFNRGEC
3 | 62.7% | GpH7-A5/GpH7-B3 variant P271_15Y/GpL16-k0 (antibody, human IgG1, kappa, He Ab; copies: 1 + 1 + 2) heavy 1: not shown heavy 2: not shown light: DIVMTQSPLSLPVTPGEPASISCQASESLVHSNRNTYLHWYLQKPGQSPQLLIYKVSNRFSGVPDRFSGSGSGTDFTLKISRVEAEDVGVYYCSQNTHVPPTFGQGTKVEIERTVAAPSVFIFPPSDEQLKSGTASVVCLLNNFYPREAKVQWKVDNALQSGNSQESVTEQDSKDSTYSLSSTLTLSKADYEKHKVYACEVTHQGLSSPVTKSFNRGEC
4 | 74.5% | GpH7-A5/GpH7-B3 variant P271_08L/GpL16-k0 (antibody, human IgG1, kappa, He Ab; copies: 1 + 1 + 2) heavy 1: not shown heavy 2: not shown light: DIVMTQSPLSLPVTPGEPASISCQASESLVHSNRNTYLHWYLQKPGQSPQLLIYKVSNRFSGVPDRFSGSGSGTDFTLKISRVEAEDVGVYYCSQNTHVPPTFGQGTKVEIERTVAAPSVFIFPPSDEQLKSGTASVVCLLNNFYPREAKVQWKVDNALQSGNSQESVTEQDSKDSTYSLSSTLTLSKADYEKHKVYACEVTHQGLSSPVTKSFNRGEC
5 | 98.2% | GpH7-A5/GpH7-B3 variant P271_10E/GpL16-k0 (antibody, human IgG1, kappa, He Ab; copies: 1 + 1 + 2) heavy 1: not shown heavy 2: not shown light: DIVMTQSPLSLPVTPGEPASISCQASESLVHSNRNTYLHWYLQKPGQSPQLLIYKVSNRFSGVPDRFSGSGSGTDFTLKISRVEAEDVGVYYCSQNTHVPPTFGQGTKVEIERTVAAPSVFIFPPSDEQLKSGTASVVCLLNNFYPREAKVQWKVDNALQSGNSQESVTEQDSKDSTYSLSSTLTLSKADYEKHKVYACEVTHQGLSSPVTKSFNRGEC
6 | 59.2% | GpH7-A5/GpH7-B3 variant P271_14T/GpL16-k0 (antibody, human IgG1, kappa, He Ab; copies: 1 + 1 + 2) heavy 1: not shown heavy 2: not shown light: DIVMTQSPLSLPVTPGEPASISCQASESLVHSNRNTYLHWYLQKPGQSPQLLIYKVSNRFSGVPDRFSGSGSGTDFTLKISRVEAEDVGVYYCSQNTHVPPTFGQGTKVEIERTVAAPSVFIFPPSDEQLKSGTASVVCLLNNFYPREAKVQWKVDNALQSGNSQESVTEQDSKDSTYSLSSTLTLSKADYEKHKVYACEVTHQGLSSPVTKSFNRGEC
7 | 92.5% | GpH7-A5/GpH7-B3 variant P271_11K/GpL16-k0 (antibody, human IgG1, kappa, He Ab; copies: 1 + 1 + 2) heavy 1: not shown heavy 2: not shown light: DIVMTQSPLSLPVTPGEPASISCQASESLVHSNRNTYLHWYLQKPGQSPQLLIYKVSNRFSGVPDRFSGSGSGTDFTLKISRVEAEDVGVYYCSQNTHVPPTFGQGTKVEIERTVAAPSVFIFPPSDEQLKSGTASVVCLLNNFYPREAKVQWKVDNALQSGNSQESVTEQDSKDSTYSLSSTLTLSKADYEKHKVYACEVTHQGLSSPVTKSFNRGEC
8 | 77.8% | GpH7-A5/GpH7-B3 variant P271_20W/GpL16-k0 (antibody, human IgG1, kappa, He Ab; copies: 1 + 1 + 2) heavy 1: not shown heavy 2: not shown light: DIVMTQSPLSLPVTPGEPASISCQASESLVHSNRNTYLHWYLQKPGQSPQLLIYKVSNRFSGVPDRFSGSGSGTDFTLKISRVEAEDVGVYYCSQNTHVPPTFGQGTKVEIERTVAAPSVFIFPPSDEQLKSGTASVVCLLNNFYPREAKVQWKVDNALQSGNSQESVTEQDSKDSTYSLSSTLTLSKADYEKHKVYACEVTHQGLSSPVTKSFNRGEC

The remaining lines, values behind:

Row | Binder | He/Con 3a
9 | GpH7-A5/GpH7-B3 variant P271_04F/GpL16-k0 (antibody, human IgG1, kappa, He Ab; copies: 1 + 1 + 2) heavy 1: not shown heavy 2: not shown light: DIVMTQSPLSLPVTPGEPASISCQASESLVHSNRNTYLHWYLQKPGQSPQLLIYKVSNRFSGVPDRFSGSGSGTDFTLKISRVEAEDVGVYYCSQNTHVPPTFGQGTKVEIERTVAAPSVFIFPPSDEQLKSGTASVVCLLNNFYPREAKVQWKVDNALQSGNSQESVTEQDSKDSTYSLSSTLTLSKADYEKHKVYACEVTHQGLSSPVTKSFNRGEC | 65.6%
10 | GpH7-A5/GpH7-B3 variant P271_06M/GpL16-k0 (antibody, human IgG1, kappa, He Ab; copies: 1 + 1 + 2) heavy 1: not shown heavy 2: not shown light: DIVMTQSPLSLPVTPGEPASISCQASESLVHSNRNTYLHWYLQKPGQSPQLLIYKVSNRFSGVPDRFSGSGSGTDFTLKISRVEAEDVGVYYCSQNTHVPPTFGQGTKVEIERTVAAPSVFIFPPSDEQLKSGTASVVCLLNNFYPREAKVQWKVDNALQSGNSQESVTEQDSKDSTYSLSSTLTLSKADYEKHKVYACEVTHQGLSSPVTKSFNRGEC | 74%
11 | GpH7-A5/GpH7-B3 variant P331_03V/GpL16-k0 (antibody, human IgG1, kappa, He Ab; copies: 1 + 1 + 2) heavy 1: not shown heavy 2: not shown light: DIVMTQSPLSLPVTPGEPASISCQASESLVHSNRNTYLHWYLQKPGQSPQLLIYKVSNRFSGVPDRFSGSGSGTDFTLKISRVEAEDVGVYYCSQNTHVPPTFGQGTKVEIERTVAAPSVFIFPPSDEQLKSGTASVVCLLNNFYPREAKVQWKVDNALQSGNSQESVTEQDSKDSTYSLSSTLTLSKADYEKHKVYACEVTHQGLSSPVTKSFNRGEC | 66.9%
12 | GpH7-A5/GpH7-B3 variant P329_10E/GpL16-k0 (antibody, human IgG1, kappa, He Ab; copies: 1 + 1 + 2) heavy 1: not shown heavy 2: not shown light: DIVMTQSPLSLPVTPGEPASISCQASESLVHSNRNTYLHWYLQKPGQSPQLLIYKVSNRFSGVPDRFSGSGSGTDFTLKISRVEAEDVGVYYCSQNTHVPPTFGQGTKVEIERTVAAPSVFIFPPSDEQLKSGTASVVCLLNNFYPREAKVQWKVDNALQSGNSQESVTEQDSKDSTYSLSSTLTLSKADYEKHKVYACEVTHQGLSSPVTKSFNRGEC | 52.7%
13 | GpH7-A5/GpH7-B3 variant P331_06M/GpL16-k0 (antibody, human IgG1, kappa, He Ab; copies: 1 + 1 + 2) heavy 1: not shown heavy 2: not shown light: DIVMTQSPLSLPVTPGEPASISCQASESLVHSNRNTYLHWYLQKPGQSPQLLIYKVSNRFSGVPDRFSGSGSGTDFTLKISRVEAEDVGVYYCSQNTHVPPTFGQGTKVEIERTVAAPSVFIFPPSDEQLKSGTASVVCLLNNFYPREAKVQWKVDNALQSGNSQESVTEQDSKDSTYSLSSTLTLSKADYEKHKVYACEVTHQGLSSPVTKSFNRGEC | 68.4%
14 | GpH7-A5/GpH7-B3 variant P329_02A/GpL16-k0 (antibody, human IgG1, kappa, He Ab; copies: 1 + 1 + 2) heavy 1: not shown heavy 2: not shown light: DIVMTQSPLSLPVTPGEPASISCQASESLVHSNRNTYLHWYLQKPGQSPQLLIYKVSNRFSGVPDRFSGSGSGTDFTLKISRVEAEDVGVYYCSQNTHVPPTFGQGTKVEIERTVAAPSVFIFPPSDEQLKSGTASVVCLLNNFYPREAKVQWKVDNALQSGNSQESVTEQDSKDSTYSLSSTLTLSKADYEKHKVYACEVTHQGLSSPVTKSFNRGEC | 55.2%
15 | GpH7-A5/GpH7-B3 variant P271_16H/GpL16-k0 (antibody, human IgG1, kappa, He Ab; copies: 1 + 1 + 2) heavy 1: not shown heavy 2: not shown light: DIVMTQSPLSLPVTPGEPASISCQASESLVHSNRNTYLHWYLQKPGQSPQLLIYKVSNRFSGVPDRFSGSGSGTDFTLKISRVEAEDVGVYYCSQNTHVPPTFGQGTKVEIERTVAAPSVFIFPPSDEQLKSGTASVVCLLNNFYPREAKVQWKVDNALQSGNSQESVTEQDSKDSTYSLSSTLTLSKADYEKHKVYACEVTHQGLSSPVTKSFNRGEC | 70.3%
16 | GpH7-A5/GpH7-B3 variant P271_07I/GpL16-k0 (antibody, human IgG1, kappa, He Ab; copies: 1 + 1 + 2) heavy 1: not shown heavy 2: not shown light: DIVMTQSPLSLPVTPGEPASISCQASESLVHSNRNTYLHWYLQKPGQSPQLLIYKVSNRFSGVPDRFSGSGSGTDFTLKISRVEAEDVGVYYCSQNTHVPPTFGQGTKVEIERTVAAPSVFIFPPSDEQLKSGTASVVCLLNNFYPREAKVQWKVDNALQSGNSQESVTEQDSKDSTYSLSSTLTLSKADYEKHKVYACEVTHQGLSSPVTKSFNRGEC | 80.2%
17 | GpH7-A5/GpH7-B3 variant P329_09D/GpL16-k0 (antibody, human IgG1, kappa, He Ab; copies: 1 + 1 + 2) heavy 1: not shown heavy 2: not shown light: DIVMTQSPLSLPVTPGEPASISCQASESLVHSNRNTYLHWYLQKPGQSPQLLIYKVSNRFSGVPDRFSGSGSGTDFTLKISRVEAEDVGVYYCSQNTHVPPTFGQGTKVEIERTVAAPSVFIFPPSDEQLKSGTASVVCLLNNFYPREAKVQWKVDNALQSGNSQESVTEQDSKDSTYSLSSTLTLSKADYEKHKVYACEVTHQGLSSPVTKSFNRGEC | 52.5%
18 | GpH7-A5/GpH7-B3 variant P271_09D/GpL16-k0 (antibody, human IgG1, kappa, He Ab; copies: 1 + 1 + 2) heavy 1: not shown heavy 2: not shown light: DIVMTQSPLSLPVTPGEPASISCQASESLVHSNRNTYLHWYLQKPGQSPQLLIYKVSNRFSGVPDRFSGSGSGTDFTLKISRVEAEDVGVYYCSQNTHVPPTFGQGTKVEIERTVAAPSVFIFPPSDEQLKSGTASVVCLLNNFYPREAKVQWKVDNALQSGNSQESVTEQDSKDSTYSLSSTLTLSKADYEKHKVYACEVTHQGLSSPVTKSFNRGEC | 97.7%
19 | GpH7-A5/GpH7-B3 variant P271_13S/GpL16-k0 (antibody, human IgG1, kappa, He Ab; copies: 1 + 1 + 2) heavy 1: not shown heavy 2: not shown light: DIVMTQSPLSLPVTPGEPASISCQASESLVHSNRNTYLHWYLQKPGQSPQLLIYKVSNRFSGVPDRFSGSGSGTDFTLKISRVEAEDVGVYYCSQNTHVPPTFGQGTKVEIERTVAAPSVFIFPPSDEQLKSGTASVVCLLNNFYPREAKVQWKVDNALQSGNSQESVTEQDSKDSTYSLSSTLTLSKADYEKHKVYACEVTHQGLSSPVTKSFNRGEC | 79.8%
20 | GpH7-A5/GpH7-B3 variant P331_02A/GpL16-k0 (antibody, human IgG1, kappa, He Ab; copies: 1 + 1 + 2) heavy 1: not shown heavy 2: not shown light: DIVMTQSPLSLPVTPGEPASISCQASESLVHSNRNTYLHWYLQKPGQSPQLLIYKVSNRFSGVPDRFSGSGSGTDFTLKISRVEAEDVGVYYCSQNTHVPPTFGQGTKVEIERTVAAPSVFIFPPSDEQLKSGTASVVCLLNNFYPREAKVQWKVDNALQSGNSQESVTEQDSKDSTYSLSSTLTLSKADYEKHKVYACEVTHQGLSSPVTKSFNRGEC | 82.5%
21 | GpH7-A5/GpH7-B3 variant P271_12R/GpL16-k0 (antibody, human IgG1, kappa, He Ab; copies: 1 + 1 + 2) heavy 1: not shown heavy 2: not shown light: DIVMTQSPLSLPVTPGEPASISCQASESLVHSNRNTYLHWYLQKPGQSPQLLIYKVSNRFSGVPDRFSGSGSGTDFTLKISRVEAEDVGVYYCSQNTHVPPTFGQGTKVEIERTVAAPSVFIFPPSDEQLKSGTASVVCLLNNFYPREAKVQWKVDNALQSGNSQESVTEQDSKDSTYSLSSTLTLSKADYEKHKVYACEVTHQGLSSPVTKSFNRGEC | 87.6%
22 | GpH7-A5/GpH7-B3 variant P271_18N/GpL16-k0 (antibody, human IgG1, kappa, He Ab; copies: 1 + 1 + 2) heavy 1: not shown heavy 2: not shown light: DIVMTQSPLSLPVTPGEPASISCQASESLVHSNRNTYLHWYLQKPGQSPQLLIYKVSNRFSGVPDRFSGSGSGTDFTLKISRVEAEDVGVYYCSQNTHVPPTFGQGTKVEIERTVAAPSVFIFPPSDEQLKSGTASVVCLLNNFYPREAKVQWKVDNALQSGNSQESVTEQDSKDSTYSLSSTLTLSKADYEKHKVYACEVTHQGLSSPVTKSFNRGEC | 94%
